Laboratory results reported in US20230024933.

Experiments:
[1] = test system: T1, phosphoserine substrate peptide RRApSVA
T1 sequence: RRASVA

[2] = test system: T2, phosphotyrosine substrate peptide ENDpYINASL
T2 sequence: ENDYINASL

[3] = molecular target: histone γH2A.X^pY142, endogenous in primary murine fibroblast cultures (UniProt P27661)

Substance | serine phosphatase activity (dephosphorylation assay) [1] | activity to dephosphorylate peptide ENDpYINASL [2] | γH2A.X^pY142 foci per nucleus after NCS exposure [3]
EYA1 isoform C (human splice variant EYA1C, exon 10 skipped) | dephosphorylation assays using the synthetic serine phosphatase substrate RRApSVA demonstrated superior serine phosphatase activity |  | 
mutant EYA1C to which exon 10 had been added (EYA1C::e10) |  | overexpression of EYA1C::e10 phenocopied dephosphorylating efficacy and fibroblast accumulation of EYA1A | EYA1C containing exon 10 (EYA1C::e10) phenocopied EYA1A with regard to premature γH2A.X^pY142 dephosphorylation
